Reference: US20110201552A1 (Janssen / Centocor, published 2011)

T1: soluble GFRα-1 IgG1-Fc fusion protein (GFRα-1 amino acids 27 to 427 fused to human IgG1-Fc, from CHO cells) (human, UniProt P56159 27-427)
T1 construct: range 27-427; The 17 amino acid CD33 signal peptide of the vector is left out; also called GFRα1-Fc; not shown: 243 amino acid COOH-terminal human IgG1-Fc fusion domain of vector Signal pIg plus (R&D Systems); Its exact limits and a
T1 sequence (looked up): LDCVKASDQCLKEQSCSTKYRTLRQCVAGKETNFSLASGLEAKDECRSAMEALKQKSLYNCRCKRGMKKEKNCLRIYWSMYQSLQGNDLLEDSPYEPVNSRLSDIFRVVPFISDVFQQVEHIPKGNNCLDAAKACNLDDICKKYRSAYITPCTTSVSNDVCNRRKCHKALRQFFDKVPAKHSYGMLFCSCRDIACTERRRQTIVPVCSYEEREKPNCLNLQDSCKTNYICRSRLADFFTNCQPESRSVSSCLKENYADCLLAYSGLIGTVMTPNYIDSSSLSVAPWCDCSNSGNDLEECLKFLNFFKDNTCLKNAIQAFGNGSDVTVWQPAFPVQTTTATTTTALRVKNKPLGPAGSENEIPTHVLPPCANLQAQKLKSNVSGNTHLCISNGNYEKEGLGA

T2: soluble GFRα-2 IgG1-Fc fusion protein (GFRα-2 amino acids 20 to 431 fused to human IgG1-Fc, from CHO cells) (human, UniProt O00451 20-431)
T2 construct: range 20-431; The 17 amino acid CD33 signal peptide of the vector is left out; also called GFRα2-Fc; not shown: 243 amino acid COOH-terminal human IgG1-Fc fusion domain of vector Signal pIg plus (R&D Systems); Its exact limits and a
T2 sequence (looked up): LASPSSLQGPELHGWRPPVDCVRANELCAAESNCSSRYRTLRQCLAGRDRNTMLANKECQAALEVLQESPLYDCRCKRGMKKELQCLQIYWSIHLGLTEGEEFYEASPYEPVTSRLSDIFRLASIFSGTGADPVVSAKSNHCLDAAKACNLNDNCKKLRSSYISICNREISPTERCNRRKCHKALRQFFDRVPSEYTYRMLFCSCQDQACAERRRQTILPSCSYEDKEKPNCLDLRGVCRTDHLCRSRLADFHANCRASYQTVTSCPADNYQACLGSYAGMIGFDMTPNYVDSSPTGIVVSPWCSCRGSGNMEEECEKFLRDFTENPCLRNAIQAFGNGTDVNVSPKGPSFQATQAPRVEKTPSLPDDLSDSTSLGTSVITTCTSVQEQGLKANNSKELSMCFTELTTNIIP

B1: soluble GFRα-3 IgG1-Fc fusion protein (GFRα-3 amino acids 28 to 371 fused to human IgG1-Fc, from CHO cells) (Fc fusion, UniProt O60609 28-371, looked up, not shown: a dimerising Fc or GST)
chain: LAAGDPLPTESRLMNSCLQARRKCQADPTCSAAYHHLDSCTSSISTPLPSEEPSVPADCLEAAQQLRNSSLIGCMCHRRMKNQVACLDIYWTVHRARSLGNYELDVSPYEDTVTSKPWKMNLSKLNMLKPDSDLCLKFAMLCTLNDKCDRLRKAYGEACSGPHCQRHVCLRQLLTFFEKAAEPHAQGLLLCPCAPNDRGCGERRRNTIAPNCALPPVAPNCLELRRLCFSDPLCRSRLVDFQTHCHPMDILGTCATEQSRCLRAYLGLIGTAMTPNFVSNVNTSVALSCTCRGSGNLQEECEMLEGFFSHNPCLTEAIAAKMRFHSQLFSQDWPHPTFAVMAHQ
B2: recombinant enovin (6xHis-tagged mature human Enovin expressed from plasmid hEVNmat/pRSETB in E. coli BL21(DE3), refolded) (ligand)
chain: MRGSHHHHHHGMASMTGGQQMGRDLYDDDDKDPAGGPGSRARAAGARGCRLRSQLVPVRALGLGHRSDELVRFRFCSGSCRRARSPHDLSLASLLGAGALRPPPGSRPVSQPCCRPTRYEAVSFMDVNSTWRTVDRLSATACGCLG
notes: The construct codes for a 146 amino acid protein: 33 leader and tag residues plus 113 residues of mature enovin; also called immobilized enovin

Columns and labels:
[1] = target: recombinant enovin (6xHis-tagged mature human Enovin expressed from plasmid hEVNmat/pRSETB in E. coli BL21(DE3), refolded) (human); experiment: SPR (BIAcore 3000, 25 C), enovin immobilized, soluble GFRα3-Fc in flow; KD calculated as kd/ka
[2] = target: recombinant enovin (6xHis-tagged mature human Enovin expressed from plasmid hEVNmat/pRSETB in E. coli BL21(DE3), refolded) (human); experiment: SPR (BIAcore 3000, 25 C), enovin immobilized, soluble GFRα3-Fc in flow at three concentrations
[3] = target: T1, soluble GFRα-1 IgG1-Fc fusion protein …; experiment: SPR (BIAcore 3000), enovin immobilized, soluble GFRα-Fc in flow
Procedure: (§1) Surface plasmon resonance (SPR) experiments were performed at 25° C. using a BIAcore 3000 instrument. Analyses were performed with enovin and NGF as immobilized ligands. The carboxylated matrix of a Fl sensor chip was first activated with a 1:1 mixture of 400 mM N-ethyl-N-(dimethylaminopropyl)-carbodiimide and 100 mM N-hydroxy-succinimide for 10 min. Than, recombinant enovin and NGF were applied onto the activated surface in […] acetate buffer, pH 4.5 at a flow rate of 5 μl/min. Unoccupied reactive groups were inactivated with 1 M ethanolamine hydrochloride. For binding experiments, soluble GFRα1-3-Fc were superfused at concentrations of 10-100 nM in HEPES buffered saline (150 mM NaCl, 3.5 mM EDTA, 0.05% P-20, 10 mM HEPES, pH 7.4) at a flow rate of 10 μl/min. The association was monitored for 3 min and dissociation for 1 min, followed by regeneration with 5 mM NaOH. Dissociation was initiated by superfusion with HEPES buffered saline. A BIAcore evaluation software, 3.0 was used to calculate the association rate (kₐ), dissociation rate (kd) and the equilibrium dissociation constants (KD calculated as kd/Kₐ).

[4] = target: T2, soluble GFRα-2 IgG1-Fc fusion protein …; experiment: as above
Procedure: as §1

Binder	Kd [1] [nM]	koff [2] [s⁻¹]	kon [2] [M⁻¹ s⁻¹]	binding result [3]	binding result [4]
B1	3.1	0.000508	165000	–	–
B2	–	–	–	no binding (tested: 10-100 nM)	no binding (tested: 10-100 nM)
